Results published in PMC1185577 (Nucleic Acids Research, 2005).

Biological target: T1, glutathione S-transferase (GST)-L5 (S. cerevisiae, UniProt P26321 1-297)
T1 sequence (looked up): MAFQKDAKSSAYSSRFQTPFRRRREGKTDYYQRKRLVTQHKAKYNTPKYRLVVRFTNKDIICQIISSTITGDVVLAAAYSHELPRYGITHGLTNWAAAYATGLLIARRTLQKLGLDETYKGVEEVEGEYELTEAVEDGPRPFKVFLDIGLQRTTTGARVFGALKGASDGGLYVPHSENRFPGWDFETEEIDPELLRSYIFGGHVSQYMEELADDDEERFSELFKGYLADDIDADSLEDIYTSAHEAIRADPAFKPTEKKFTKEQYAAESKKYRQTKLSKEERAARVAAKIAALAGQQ
Test: pull-down

B1: maltose-binding protein (MBP)-Rrs1p (natural protein, S. cerevisiae, UniProt Q08746 1-203, looked up)
chain: MSAEDYKNLPVTVEKPIPVVYDLGNLAAFDSNVLDKNDLDSSNARREEKIKSLTRDNVQLLINQLLSLPMKTTTESVGGTGGQSSVMTLLQLPDPTTDLPREKPLPKAKAMTKWEKFAAKKGIKPKERAGKMIYDEASGEWVPKWGYKGANKKLDDQWLVEVDDKVKGTDNELIDPRTLNRAERKRLVKKNEKQQRRNMKNAL
binding result: binds
